Reference: paper PMC8809517, “Cofactor-independent RNA editing by a synthetic S-type PPR protein”
Numbering of substitutions follows the chain as printed.

T1: GFP-9S library array, motif 4 ND N98S;D124H (synthetic construct, N98S;D124H)
T1 chain: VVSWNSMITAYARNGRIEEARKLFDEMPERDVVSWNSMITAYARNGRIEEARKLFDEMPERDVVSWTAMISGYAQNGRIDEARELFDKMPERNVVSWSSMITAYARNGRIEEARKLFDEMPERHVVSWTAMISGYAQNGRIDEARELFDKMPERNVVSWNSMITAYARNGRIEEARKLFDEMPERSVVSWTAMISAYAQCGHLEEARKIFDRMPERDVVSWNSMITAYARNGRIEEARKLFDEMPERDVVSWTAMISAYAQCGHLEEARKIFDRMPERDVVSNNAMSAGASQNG

T2: GFP-9S library array, motif 4 ND N98T;D124E (synthetic construct, N98T;D124E)
T2 chain: T1 chain with S98T, H124E

T3: GFP-9S library array, motif 4 ND N98S;D124L (synthetic construct, N98S;D124L)
T3 chain: T1 chain with H124L

T4: GFP-9S library array, motif 4 ND N98W;D124F (synthetic construct, N98W;D124F)
T4 chain: T1 chain with S98W, H124F

T5: GFP-9S library array, motif 4 ND N98E;D124W (synthetic construct, N98E;D124W)
T5 chain: T1 chain with S98E, H124W


Columns and labels:
Experiment in all cases: high-throughput RNA pulldown from lysate on Ni-NTA beads; HRP: 50 mM Tris pH 8, 150 mM NaCl, 1 mM beta-mercaptoethanol, 50 ug/ml BSA, 3 ug/ml yeast RNA, 0.5% heparin; ITC and FP: Tris pH 8, 200 mM KCl, 5% glycerol; MST: 50 mM Tris pH 8, 200 mM NaCl, 1 mM DTT, BSA, heparin, 0.05% Tween 20
Conditions in all cases: tags: N-terminal His-eGFP
[1] = biological target: T1, GFP-9S library array, motif 4 ND …
[2] = biological target: T2, GFP-9S library array, motif 4 ND …
[3] = biological target: T3, GFP-9S library array, motif 4 ND …
[4] = biological target: T4, GFP-9S library array, motif 4 ND …
[5] = biological target: T5, GFP-9S library array, motif 4 ND …

Binder	Kd ([1]; label: 5' IRDye 800CW) [nM]	Kd ([2]; label: 5' IRDye 800CW) [nM]	Kd ([3]; label: 5' IRDye 800CW) [nM]	Kd ([4]; label: 5' IRDye 800CW) [nM]	Kd ([5]; label: 5' IRDye 800CW) [nM]	Kd ([1]; label: 5' Cy5) [nM]	Kd ([2]; label: 5' Cy5) [nM]	Kd ([3]; label: 5' Cy5) [nM]	Kd ([4]; label: 5' Cy5) [nM]	Kd ([5]; label: 5' Cy5) [nM]
AUUAUACGUGA (ssRNA) [IR-rpoA-U]	101	134	164	273	648					
AUUAGACGUGA (ssRNA) [Cy5-rpoA-G]						99.4	13.2	94	80.4	198
AUUAAACGUGA (ssRNA) [IR-rpoA-A]	53.5	185	159	274	630					
AUUACACGUGA (ssRNA) [Cy5-rpoA]						122	258	83.5	95.8	213
